In publication PMC8192741, “The Komagataeibacter europaeus GqqA is the prototype of a novel bifunctional N-Acyl-homoserine lactone acylase with prephenate dehydratase activity” (Scientific Reports, 2021):

Experiments:
SeGqqA = target: T1, SeGqqA (Komagataeibacter europaeus, UniProt A0A0M0ELU2, DEL86-170); experiment: X-ray crystal structure (SAD), […] Å; assay type: binding; conditions: ACT regulatory domain; not added
T1 construct: gene gqqA; selenomethionine-substituted GqqA; residues 86-170 lost by proteolysis during crystallization (not engineered; termini V85 and His171); made as full length with C-terminal TEV site and His6 tag in E. coli BL21(DE3)
T1 sequence (A0A0M0ELU2 with tags, fused parts or gaps DEL86-170): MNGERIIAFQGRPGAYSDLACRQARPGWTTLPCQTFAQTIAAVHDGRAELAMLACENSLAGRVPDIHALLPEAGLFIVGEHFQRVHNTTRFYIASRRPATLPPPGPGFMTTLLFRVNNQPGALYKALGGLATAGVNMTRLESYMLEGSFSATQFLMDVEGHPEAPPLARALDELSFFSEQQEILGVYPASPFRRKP

GqqA = target: T2, GqqA (Komagataeibacter europaeus, UniProt A0A0M0ELU2); experiment: X-ray crystal structure, […] Å; assay type: binding; conditions: ACT regulatory domain at dimer interface, one per monomer; co-purified, not added
T2 construct: E. coli BL21(DE3); homodimer of 61 kDa; primers encode N-terminus MNGERIIA and C-terminus LRRKP; PDT domain 1-180, ACT domain 194-281

purified protein [1] = substrate: CCCCCCCC(=O)CC(=O)N[C@H]1CCOC1=O; experiment: purified protein; assay type: biochemical, Komagataeibacter europaeus; conditions: 5 mM EPPS pH 8.0, 0.5 mM Phenol Red, 30 °C, substrate 0-65 mM
purified protein [2] = substrate: CCCCCCCCCC(=O)CC(=O)N[C@H]1CCOC1=O; experiment: purified protein; assay type: biochemical, Komagataeibacter europaeus; conditions: 5 mM EPPS pH 8.0, 0.5 mM Phenol Red, 30 °C, substrate 0-65 mM
purified protein [3] = substrate: CCCC(=O)CC(=O)N[C@H]1CCOC1=O; experiment: purified protein; assay type: biochemical, Komagataeibacter europaeus; conditions: 5 mM EPPS pH 8.0, 0.5 mM Phenol Red, 30 °C, substrate 0-65 mM
purified protein [4] = substrate: CCCCCC(=O)CC(=O)N[C@H]1CCOC1=O; experiment: purified protein; assay type: biochemical, Komagataeibacter europaeus; conditions: 5 mM EPPS pH 8.0, 0.5 mM Phenol Red, 30 °C, substrate 0-65 mM
[5] = target: the molecule itself; experiment: dynamic light scattering; GqqA 3.6 mg/ml in 0.1 M K2HPO4 pH 5.0, 150 mM NaCl, 20 °C; hydrodynamic radius 3.9 ± 0.1 nm; long-term measurement at room temperature for 4 days

Molecule: N[C@@H](Cc1ccccc1)C(=O)O [L-Phe]
- X-ray crystal structure (SAD), 1.7 Å (SeGqqA): L-Phe is also bound in the truncated SeGqqA.
- X-ray crystal structure, 2.5 Å (GqqA): within the dimer interface we identified two L-Phe molecules

B1: GqqA (enzyme, Komagataeibacter europaeus CECT 8546)
chain: MNGERIIAFQGRPGAYSDLACRQARPGWTTLPCQTFAQTIAAVHDGRAELAMLACENSLAGRVPDIHALLPEAGLFIVGEHFQRVEHCLLGIPGSTLADARRIHTHPVAMAQVRGIITELGLDPVVEFDTAGAAEMVREWGRKEDVAVASALAAELNGLEILRRNVEDATHNTTRFYIASRRPATLPPPGPGFMTTLLFRVNNQPGALYKALGGLATAGVNMTRLESYMLEGSFSATQFLMDVEGHPEAPPLARALDELSFFSEQQEILGVYPASPFRRKP
notes: GqqA, quorum quenching N-acyl-homoserine lactone acylase / prephenate dehydratase of Komagataeibacter europaeus CECT 8546; 281 amino acid residues, about 30.5 kDa; PDT domain 1-180, ACT domain 194-281; the gene was integrated in pET21a; no removal of the tag by TEV is described; also called native GqqA; GqqA wt; source: E. coli BL21 (DE3), purified (Ni-NTA, size-exclusion chromatography)
- Km (purified protein [1]): 2.36 ± 0.35 mM
- Vmax (purified protein [1]): 152 µmol/min/mg
- Vmax/Km (purified protein [1]): 64500 µL/min/mg
- Km (purified protein [2]): 16.7 ± 0.5 mM
- Vmax (purified protein [2]): 13.8 µmol/min/mg
- Vmax/Km (purified protein [2]): 820 µL/min/mg
- Km (purified protein [3]): 6.89 ± 0.15 mM
- Vmax (purified protein [3]): 109 µmol/min/mg
- Vmax/Km (purified protein [3]): 15900 µL/min/mg
- Km (purified protein [4]): 4.87 ± 0.12 mM
- Vmax (purified protein [4]): 117 µmol/min/mg
- Vmax/Km (purified protein [4]): 24100 µL/min/mg
- stoichiometry N [5]: 2
